Test results from doi:10.1101/2020.06.24.168591.

Target: E108D mutant of Thermoplasmatales archaeon SG8-52-1 heliorhodopsin (TaHeR) (Thermoplasmatales archaeon SG8-52-1)
Test: crystal structure

“E108D mutant of Thermoplasmatales archaeon SG8-52-1 heliorhodopsin (TaHeR) (natural protein)” was tested, and the stoichiometry N was 2.
